Tests used:
[1] = target: T1, Mpc1^linker: Mpc1 with C-terminal ENLYFQG (TEV site), flexible linker (GGGGS)4, WSHPQFEK and 8×His-tag (Saccharomyces cerevisiae, UniProt P53157 1-130); experiment: SEC; monomers refolded alone or pre-mixed 1:1 in LDAO/DPC (2:1), then Superdex 75 10/300 GL in 100 mM Tris/HCl pH 7.5, 150 mM NaCl, 1 mM EDTA, 10 mM β-ME, 1 mM DPC, 2 mM LDAO; peaks analysed by SDS-PAGE with Coomassie staining; conditions: both partners purified
T1 construct: Mpc1, Saccharomyces cerevisiae, NCBI NM_001180945; The extension was added so that Mpc1 and Mpc2 can be told apart by size on SDS-PAGE; no TEV cleavage is described; not shown: 8×His, C-terminal, kept
T1 sequence (looked up): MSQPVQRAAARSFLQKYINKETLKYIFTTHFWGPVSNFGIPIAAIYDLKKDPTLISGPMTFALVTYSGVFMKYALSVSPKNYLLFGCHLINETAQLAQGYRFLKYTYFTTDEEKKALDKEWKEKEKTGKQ

[2] = target: the molecule itself; experiment: SEC-MALS; Superdex 75 with Dawn HELEOS II, three-detector method (MALS/UV/RI), 0.3 mL/min; 100 mM Tris/HCl pH 7.5, 150 mM NaCl, 1 mM EDTA, 10 mM β-ME, 1 mM DPC, 2 mM LDAO; second elution peak of each complex
[3] = target: T2, Saccharomyces cerevisiae mitochondrial pyruvate carrier 1 (Mpc1) with C-terminal 8×His-tag (Saccharomyces cerevisiae, UniProt P53157 1-130); experiment: paramagnetic relaxation enhancement (PRE) NMR; MTSL-labelled monomer co-refolded with 15N-labelled monomer; 1H-15N BEST-TROSY with and without vitamin C; 25 mM NaAc pH 6.0, 50 mM glutamic acid, 50 mM arginine, 10 mM β-ME, 1 mM EDTA, 1 mM DPC, 2 mM LDAO; 308 K, 850 MHz; conditions: both partners purified
T2 construct: Mpc1, Saccharomyces cerevisiae, NCBI NM_001180945; amplified from a cDNA library with printed primers that run from the ATG to the last codon before the stop; 15N-labelled where it was the observed partner in NMR; The reverse primer carries a BamHI site, so a few vector-coded residues may lie between Mpc1 and the His-tag (surmised); also called 15N-Mpc1; yeast Mpc1
T2 sequence (looked up): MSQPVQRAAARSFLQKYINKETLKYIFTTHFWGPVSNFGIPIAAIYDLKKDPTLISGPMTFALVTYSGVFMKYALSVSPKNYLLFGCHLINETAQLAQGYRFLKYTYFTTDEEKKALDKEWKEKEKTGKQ

[4] = target: T3, Saccharomyces cerevisiae mitochondrial pyruvate carrier 1 (Mpc1) with C-terminal 8×His-tag (Saccharomyces cerevisiae), P53157; experiment: SEC-MALS; Superdex 75 with Dawn HELEOS II, three-detector method (MALS/UV/RI), 0.3 mL/min; 100 mM Tris/HCl pH 7.5, 150 mM NaCl, 1 mM EDTA, 10 mM β-ME, 1 mM DPC, 2 mM LDAO; second elution peak of each complex; conditions: remark: other sources report otherwise
T3 chain: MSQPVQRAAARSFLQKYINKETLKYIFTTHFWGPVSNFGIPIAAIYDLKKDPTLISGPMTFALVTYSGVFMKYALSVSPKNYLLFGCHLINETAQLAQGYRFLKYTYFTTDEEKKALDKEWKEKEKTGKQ

B1: Saccharomyces cerevisiae mitochondrial pyruvate carrier 2 (Mpc2) with C-terminal 8×His-tag (natural protein, UniProt P38857 1-129, looked up)
chain: MSTSSVRFAFRRFWQSETGPKTVHFWAPTLKWGLVFAGFSDMKRPVEKISGAQNLSLLSTALIWTRWSFVIKPRNILLASVNSFLCLTAGYQLGRIANYRIRNGDSISQLCSYILSGADESKKEITTGR
notes: Mpc2, Saccharomyces cerevisiae, NCBI NM_001179293; amplified from a cDNA library with printed primers that run from the ATG to the last codon before the stop; 15N-labelled where it was the observed partner in NMR; The reverse primer carries a BamHI site, so a few vector-coded residues may lie between Mpc2 and the His-tag (surmised); also called 15N-Mpc2; yeast Mpc2
stoichiometry N [1]: ~1
stoichiometry N [2]: 2

B2: MTSL-labelled Mpc2 monomer (MTSL on C86 and C111) (natural protein, Saccharomyces cerevisiae, UniProt P38857 1-129, looked up)
chain: MSTSSVRFAFRRFWQSETGPKTVHFWAPTLKWGLVFAGFSDMKRPVEKISGAQNLSLLSTALIWTRWSFVIKPRNILLASVNSFLCLTAGYQLGRIANYRIRNGDSISQLCSYILSGADESKKEITTGR
modifications: MTSL spin label on C86 and C111
notes: Mpc2, Saccharomyces cerevisiae, NCBI NM_001179293; same construct as m2, not isotope-labelled; Same chain as m2 with the paramagnetic probe on its cysteines; also called MTSL–Mpc2; source: E. coli Rosetta 2 (DE3), inclusion bodies, purified
binding result [3]: binds

B3: Saccharomyces cerevisiae mitochondrial pyruvate carrier 1 (Mpc1) with C-terminal 8×His-tag, P53157 1-130 (natural protein)
chain: MSQPVQRAAARSFLQKYINKETLKYIFTTHFWGPVSNFGIPIAAIYDLKKDPTLISGPMTFALVTYSGVFMKYALSVSPKNYLLFGCHLINETAQLAQGYRFLKYTYFTTDEEKKALDKEWKEKEKTGKQ
stoichiometry N [4]: 2
